What was measured:
[1] = Serum pharmacokinetics of ARGX-110 (ELISA); assay type: in vivo, human
Protocol: FIG. 11 The serum concentration of ARGX-110 was analyzed using a validated enzyme-linked immunosorbent assay (ELISA) method. Individual patient PK plots are provided for 10 mg/kg cohort. The PK plot presents data for ARGX-110 cycle1 (D-14 pre-dose until Cycle1 D1 pre-dose).
The serum concentrations of ARGX-110 were analysed using a validated enzyme-linked immunosorbent assay (ELISA) method. The following pharmacokinetic parameters were assessed: • Cmax: maximum observed concentration; Ctrough: trough concentration; AUC∞: area under the serum concentration-time curve from time zero to infinity; AUCtau: area under the serum concentration-time curve during the dosing interval; Vd: apparent volume of distribution; CL: total systemic clearance of drug after IV administration; t1/2: half-life.
The serum concentration of ARGX-110 was analysed using a validated enzyme-linked immunosorbent assay (ELISA) method. FIG. 11 provides individual patient PK plots for the 10 mg/kg cohort. The PK plot presents data for ARGX-110 cycle 1 (D-14 pre-dose until Cycle1 D1 pre-dose).

AML = assay: Phase I/II trial of ARGX-110 with AZA: clinical response; assay type: in vivo, human; conditions: for Time to best response: cycle/day
From the text: The study included a screening phase (between Day −35 and Day −14), a loading dose of ARGX-110 (Day −14) and an open-label treatment phase during which subjects visited the study center for administration of the study drug (Day −14 until disease progression), and end-of-treatment (EOT) evaluations performed within 7 days after the last ARGX-110 treatment. Additional follow-up evaluations were scheduled at 30 and 60 days (±7 days) after the EOT date. The 60-days follow-up visit was also the end-of-study (EOS) visit.
Clinical response to treatment was categorised according Table 3: […]

healthy stem cells = assay type: cell-based, human
Protocol: (§1) FIGS. 3A-3F Anti-CD70/decitabine co-treatment reduces re-plating capacity of human CD34+CD38− AML stem/progenitor cells. […] Colonies and cells were enumerated after 14 days. (FIG. 3A) Colonies per 1×10^3 plated cells. (FIG. 3B) Cells per colony. (FIG. 3C) Serial re-plating experiments. (d-f) FACS-purified lin-CD90+CD34+CD38− stem/progenitor cells from BM of “healthy” donors were cultured and plated in methylcellulose as described in (a-c). (FIG. 3D) Colonies per 1×10^3 plated cells. (FIG. 3E) Cells per colony. (FIG. 3F) Serial re-plating experiments. Data are represented as mean±S.D. Statistics: One-way-ANOVA. Dunnett's post-test (vs. αCD70/D); *, P<0.05; **, P<0.01; ***, P<0.001.

Numb = Numb expression in purified AML blasts of patients; assay type: in vivo, human; conditions: monotherapy at C1D1; combination at C4D1
Protocol: FIGS. 8A-8B Purified AML blasts (FACS gate: CD45^dim SSC^low AV^−CD4^−CD8^−CD19^−) were fixed, permeabilized and cells incubated overnight with α-Numb antibody, followed by staining with a fluorescently labeled secondary antibody. DAPI was used to counterstain for DNA. Samples were acquired on an ImageStreamX® Mark II imaging flow cytometer (Amnis/EMD Millipore) and analyzed using INSPIRE™ and IDEAS® software (Amnis/EMD Millipore). FIG. 8A) Total Numb expression (Mean fluorescence intensity) was determined across the slide for bone marrow samples of one patient harvested at baseline (“screening”), after ARGX-110 monotherapy (C1D1) and after combination treatment (C4D1). FIG. 8B) Symmetrically (SD) and asymmetrically dividing (AD) cells were scored for a bone marrow patient sample at baseline (“before”) and after ARGX-110 monotherapy (after αCD70).
The level of asymmetric division in a population of LSCs can be determined by measuring the level of a cell fate determinant such as the Numb protein (Riether et al., J Exp Med. 2017 February; 214(2): 359-380, incorporated herein by reference). Increased Numb expression is indicative of an increase in asymmetric division and therefore an increase in myeloid differentiation and decreased LSC populations.

AML LSCs = assay: Colony plating assay of AML LSCs; assay type: cell-based, human; conditions: P6, P8, P11; all disease risk categories
Protocol: as §1

[2] = Phase I/II trial: adverse events and toxicity
Protocol: Subjects received a loading dose of ARGX-110 on Day −14, followed by administration of ARGX-110 in combination with standard doses of AZA. Doses of ARGX-110 were administered intravenously every 2 weeks (loading dose at Day −14 and further doses on Days 3 and 17) in combination with standard doses of AZA to determine the dose limiting toxicity (see FIG. 4). The first patient of each cohort was monitored until day 7 before a second patient was included. […] The ARGX-110 dose level in the first cohort in Phase I was 1 mg/kg body weight.
All subjects in the study received a single loading dose of ARGX-110 on Day −14, at the same dose level as the bi-weekly dose. Subjects in Phase I of the study received one of the following treatments: • Cohort 1: 1 mg/kg body weight IV on Days 3 and 17 of a 28-day cycle • Cohort 2: 3 mg/kg body weight IV on Days 3 and 17 of a 28-day cycle • Cohort 3: 10 mg/kg body weight IV on Days 3 and 17 of a 28-day cycle • Cohort 4: 20 mg/kg body weight IV on Days 3 and 17 of a 28-day cycle

[3] = patients treated for sufficient time to assess response

B1: ARGX-110: IgG1 anti-CD70 antibody with defucosylated Fc region; VH SEQ ID NO: 4, VL SEQ ID NO: 8 (antibody, V domains shown)
VH: EVQLVESGGGLVQPGGSLRLSCAASGFTFSVYYMNWVRQAPGKGLEWVSDINNEGGTTYYADSVKGRFTISRDNSKNSLYLQMNSLRAEDTAVYYCARDAGYSNHVPIFDSWGQGTLVTVSS
VL: QAVVTQEPSLTVSPGGTVTLTCGLKSGSVTSDNFPTWYQQTPGQAPRLLIYNTNTRHSGVPDRFSGSILGNKAALTITGAQADDEAEYFCALFISNPSVEFGGGTQLTVLG
modifications: IgG1, defucosylated Fc; Custom antibody fragment
half-life ([1]; 10 mg/kg): approximately 9.2 days | Cmax and AUC over the dose range studied ([1]; all cohorts): dose proportionality | Time to best response (AML; Cohort 1 (1 mg/kg) with AZA, one line per patient, 1 mg/kg): EOT | Time to best response (AML; Cohort 2 (3 mg/kg) with AZA, one line per patient, 3 mg/kg): EOT | Best response to date (AML; Cohort 4 (20 mg/kg) with AZA, one line per patient, 20 mg/kg): No response | patients in each cohort showing complete remission (AML; each of the 1 mg/kg, 3 mg/kg and 10 mg/kg cohorts): 2 of the 3 | patients responding (response rate) (AML; [3]): more than 90% | responding patients / assessed patients (AML; [3]): 10/11 | effect on healthy stem cells (colonies, cells per colony, re-plating) (healthy stem cells): no effect on healthy cells compared to vehicle alone | Numb expression (Numb): increased | number of colonies formed by AML LSCs (AML LSCs): reduce the number of colonies | Anaemia, Grade 3-5 adverse events: (patients) ([2]; Cohort 1 (1 mg/kg), with AZA): 1 | Anaemia, Grade 3-5 adverse events: Events ([2]; Cohort 1 (1 mg/kg), with AZA): 4 | Febrile Neutropenia, Grade 3-5 adverse events: (patients) ([2]; Cohort 1 (1 mg/kg), with AZA): 2 (2) | Febrile Neutropenia, Grade 3-5 adverse events: Events ([2]; Cohort 1 (1 mg/kg), with AZA): 2 (2) | Leukopenia, Grade 3-5 adverse events: (patients) ([2]; Cohort 1 (1 mg/kg), with AZA): 1 (1) | Leukopenia, Grade 3-5 adverse events: Events ([2]; Cohort 1 (1 mg/kg), with AZA): 1 (1) | Neutropenia, Grade 3-5 adverse events: (patients) ([2]; Cohort 1 (1 mg/kg), with AZA): 1 | Neutropenia, Grade 3-5 adverse events: Events ([2]; Cohort 1 (1 mg/kg), with AZA): 2 | Pleuropericarditis, Grade 3-5 adverse events: (patients) ([2]; Cohort 1 (1 mg/kg), with AZA): 1 (1) | Pleuropericarditis, Grade 3-5 adverse events: Events ([2]; Cohort 1 (1 mg/kg), with AZA): 1 (1) | Thrombocytopenia, Grade 3-5 adverse events: (patients) ([2]; Cohort 1 (1 mg/kg), with AZA): 2 | Thrombocytopenia, Grade 3-5 adverse events: Events ([2]; Cohort 1 (1 mg/kg), with AZA): 8 | Anaemia, Grade 3-5 adverse events: (patients) ([2]; Cohort 2 (3 mg/kg), with AZA): 3 | Anaemia, Grade 3-5 adverse events: Events ([2]; Cohort 2 (3 mg/kg), with AZA): 10 | Constipation, Grade 3-5 adverse events: (patients) ([2]; Cohort 2 (3 mg/kg), with AZA): 1 (1) | Constipation, Grade 3-5 adverse events: Events ([2]; Cohort 2 (3 mg/kg), with AZA): 1 (1) | Fever, Grade 3-5 adverse events: (patients) ([2]; Cohort 2 (3 mg/kg), with AZA): 1 (1) | Fever, Grade 3-5 adverse events: Events ([2]; Cohort 2 (3 mg/kg), with AZA): 1 (1) | Hypertension, Grade 3-5 adverse events: (patients) ([2]; Cohort 2 (3 mg/kg), with AZA): 1 | Hypertension, Grade 3-5 adverse events: Events ([2]; Cohort 2 (3 mg/kg), with AZA): 2 | Hypokalaemia, Grade 3-5 adverse events: (patients) ([2]; Cohort 2 (3 mg/kg), with AZA): 1 (1) | Hypokalaemia, Grade 3-5 adverse events: Events ([2]; Cohort 2 (3 mg/kg), with AZA): 1 (1) | Leukopenia, Grade 3-5 adverse events: (patients) ([2]; Cohort 2 (3 mg/kg), with AZA): 1 (1) | Leukopenia, Grade 3-5 adverse events: Events ([2]; Cohort 2 (3 mg/kg), with AZA): 1 (1) | Neutropenia, Grade 3-5 adverse events: (patients) ([2]; Cohort 2 (3 mg/kg), with AZA): 1 | Neutropenia, Grade 3-5 adverse events: Events ([2]; Cohort 2 (3 mg/kg), with AZA): 4 | Proctitis, Grade 3-5 adverse events: (patients) ([2]; Cohort 2 (3 mg/kg), with AZA): 1 | Proctitis, Grade 3-5 adverse events: Events ([2]; Cohort 2 (3 mg/kg), with AZA): 2 | Thrombocytopenia, Grade 3-5 adverse events: (patients) ([2]; Cohort 2 (3 mg/kg), with AZA): 3 (3) | Thrombocytopenia, Grade 3-5 adverse events: Events ([2]; Cohort 2 (3 mg/kg), with AZA): 3 (3) | Disease Progression, Grade 3-5 adverse events: (patients) ([2]; Cohort 3 (10 mg/kg), with AZA): 1 (1) | Disease Progression, Grade 3-5 adverse events: Events ([2]; Cohort 3 (10 mg/kg), with AZA): 1 (1) | Febrile Neutropenia, Grade 3-5 adverse events: (patients) ([2]; Cohort 3 (10 mg/kg), with AZA): 1 (1) | Febrile Neutropenia, Grade 3-5 adverse events: Events ([2]; Cohort 3 (10 mg/kg), with AZA): 1 (1) | Thrombocytopenia, Grade 3-5 adverse events: (patients) ([2]; Cohort 3 (10 mg/kg), with AZA): 1 | Thrombocytopenia, Grade 3-5 adverse events: Events ([2]; Cohort 3 (10 mg/kg), with AZA): 2 | Anaemia, Grade 3-5 adverse events: (patients) ([2]; Cohort 4 (20 mg/kg), with AZA): 1 | Anaemia, Grade 3-5 adverse events: Events ([2]; Cohort 4 (20 mg/kg), with AZA): 2 | Febrile Neutropenia, Grade 3-5 adverse events: (patients) ([2]; Cohort 4 (20 mg/kg), with AZA): 1 (1) | Febrile Neutropenia, Grade 3-5 adverse events: Events ([2]; Cohort 4 (20 mg/kg), with AZA): 1 (1) | Thrombocytopenia, Grade 3-5 adverse events: (patients) ([2]; Cohort 4 (20 mg/kg), with AZA): 2 (2) | Thrombocytopenia, Grade 3-5 adverse events: Events ([2]; Cohort 4 (20 mg/kg), with AZA): 2 (2) | Anaemia, Grade 3-5 adverse events: Total ([2]; all cohorts): 16 | Constipation, Grade 3-5 adverse events: Total ([2]; all cohorts): 1 | Disease Progression, Grade 3-5 adverse events: Total ([2]; all cohorts): 1 | Febrile Neutropenia, Grade 3-5 adverse events: Total ([2]; all cohorts): 4 | Fever, Grade 3-5 adverse events: Total ([2]; all cohorts): 1 | Hypertension, Grade 3-5 adverse events: Total ([2]; all cohorts): 2 | Hypokalaemia, Grade 3-5 adverse events: Total ([2]; all cohorts): 1 | Leukopenia, Grade 3-5 adverse events: Total ([2]; all cohorts): 1 | Neutropenia, Grade 3-5 adverse events: Total ([2]; all cohorts): 6 | Pleuropericarditis, Grade 3-5 adverse events: Total ([2]; all cohorts): 1 | Proctitis, Grade 3-5 adverse events: Total ([2]; all cohorts): 2 | Thrombocytopenia, Grade 3-5 adverse events: Total ([2]; all cohorts): 15 | toxicity ([2]; monotherapy or in combination with aza): did not result in any observed increase in toxicity

Reference: patent US20190106498A1, “TREATMENT FOR ACUTE MYELOID LEUKEMIA” (priority 2017, published 2019)
